Measurements taken from publication PMC6325061.

Biological target: phytochrome B (PhyB), amino acids 1-651, biotinylated (Arabidopsis thaliana) (UniProt P14713)
Sequence of UniProt P14713 (P14713 1-651): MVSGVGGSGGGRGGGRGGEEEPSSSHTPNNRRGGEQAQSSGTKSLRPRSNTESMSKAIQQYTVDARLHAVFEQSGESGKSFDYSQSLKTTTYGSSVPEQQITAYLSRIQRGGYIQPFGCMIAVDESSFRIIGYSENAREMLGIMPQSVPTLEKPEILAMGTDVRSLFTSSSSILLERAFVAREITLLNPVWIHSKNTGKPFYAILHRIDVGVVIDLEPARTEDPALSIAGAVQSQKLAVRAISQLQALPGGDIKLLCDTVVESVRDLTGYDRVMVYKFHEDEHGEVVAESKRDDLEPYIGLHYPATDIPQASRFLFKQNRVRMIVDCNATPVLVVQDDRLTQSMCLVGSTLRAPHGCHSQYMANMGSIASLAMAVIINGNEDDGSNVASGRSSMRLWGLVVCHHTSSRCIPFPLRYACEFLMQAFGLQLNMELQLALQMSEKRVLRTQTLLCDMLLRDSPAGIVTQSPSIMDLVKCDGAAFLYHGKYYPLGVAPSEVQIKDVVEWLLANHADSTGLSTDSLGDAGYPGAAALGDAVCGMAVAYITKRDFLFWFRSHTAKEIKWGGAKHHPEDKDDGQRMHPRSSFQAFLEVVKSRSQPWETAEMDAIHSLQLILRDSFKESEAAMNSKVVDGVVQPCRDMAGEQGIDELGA

- cells with paxillin clustering at the cellular periphery, HeLa stably expressing OptoIntegrin on PhyB (1–651)-coated glass, constant 660 nm light: 80 % of cells
- cells with paxillin clustering at the cellular periphery, HeLa stably expressing OptoIntegrin on PhyB (1–651)-coated glass, treated with far-red (740 nm) light: 20 % of cells
- cells with paxillin clusters at the edges, HEK-293T stably expressing OptoIntegrin on PhyB (1–651)-coated glass, constant 660 nm light: 55 % of cells
- cells with paxillin clusters, HEK-293T stably expressing OptoIntegrin on PhyB (1–651)-coated glass, 1.5 h 660 nm then switched to 740 nm for 0.5 h: 40 % of cells
Substance: OptoIntegrin: human integrin αVβ3 with PIF^S inserted between Met180 and Lys181 of the β subunit (construct pJB005) (from UniProt Q8L5W7 1-100; P06756 31-1048) (receptor)
